According to the RNAGym collection of RNA variant scans (doi:10.7554/elife.80360):

B1: CPEB3 Ribozyme (parent)
chain: GGGGGCCACAGCAGAAGCGUUCACGUCGCGGCCCCUGUCAGAUUCUGGUGAAUCUGCGAAUUCUGCUGU

Variants of: B1
Assay: self-cleavage, relative activity (ratio to wild type); higher = more cleavage; co-transcriptional

| Variant | self-cleavage |
| --- | --- |
| G5C C22A | 0.107 |
| G5A G37A | 0.143 |
| G4C C57U | 0.234 |
| G4C C57G | 0.15 |
| G4C C7G | 0.0794 |
| G3U G68U | 0.546 |
| G5C A10U | 0.341 |
| G4U A40C | 0.199 |
| G5A U49C | 0.969 |
| G5A U49G | 0.781 |
| G4U A59G | 0.442 |
| G4C G68C | 0.941 |
| G4C G68A | 0.976 |
| G4C G56U | 0.339 |
| G4U A10G | 0.784 |
| G4U A10C | 0.905 |
| G4A G14A | 0.401 |
| G4A C33A | 0.897 |
| G4A C33U | 0.968 |
| G4A C35U | 0.244 |
| G4U C33G | 1 |
| G5C C7U | 0.156 |
| G5A C29G | 0.175 |
| G4C U53G | 0.142 |

| Variant | self-cleavage |
| --- | --- |
| G3U U43G | 0.0687 |
| G4A G68A | 0.999 |
| G4A G68C | 0.959 |
| G4C A10G | 0.748 |
| G4C A10C | 0.844 |
| G5A C66U | 0.88 |
| G3U U20G | 0.0082 |
| G3U U20C | 0.0468 |
| G4A U61C | 0.433 |
| G5C A42G | 0.282 |
| G4U G5A | 0.0691 |
| G4U G5C | 0.105 |
| G4A A51G | 0.787 |
| G4A A51C | 0.702 |
| G4A C27G | 0.119 |
| G4A C34G | 0.16 |
| G4C G5A | 0.0843 |
| G5C G19C | 0.0995 |
| G5C G14A | 0.0874 |
| G5C G14C | 0.146 |
| G5C A59C | 0.135 |
| G5C A59U | 0.14 |
| G4A G28A | 0.117 |
| G5A C9G | 0.982 |

| Variant | self-cleavage |
| --- | --- |
| G5A C9U | 1.02 |
| G5C C35U | 0.162 |
| G5C C35G | 0.121 |
| G4C U26C | 0.472 |
| G5A C18A | 0.12 |
| G4C C32G | 0.0983 |
| G4C C32A | 0.188 |
| G4U C57A | 0.17 |
| G4C C29U | 0.131 |
| G5C C6A | 0.0948 |
| G5C C6U | 0.158 |
| G4A C66G | 0.799 |
| G5C A15G | 0.3 |
| G5C A15U | 0.15 |
| G5C A15C | 0.113 |
| G5A A42C | 0.505 |
| G4U C63U | 0.739 |
| G4U C63A | 0.306 |
| G4C G47C | 0.718 |
| G5C C27G | 0.0907 |
| G5C C27A | 0.109 |
| G4C U38C | 0.302 |
| G4C C24U | 0.124 |
| G4C A23U | 0.801 |

| Variant | self-cleavage |
| --- | --- |
| G4U G68A | 0.983 |
| G4U G68C | 0.97 |
| G4A G41U | 0.525 |
| G4A G41C | 0.341 |
| G5C G48C | 0.245 |
| G5C G48U | 0.194 |
| G4C G17U | 0.0737 |
| G4C G17A | 0.0822 |
| G4A C12U | 0.876 |
| G4C | 0.69 |
| G4A | 0.898 |
| G4U | 0.806 |
| G4U G30A | 0.142 |
| G4A C63G | 0.521 |
| G4A C63A | 0.483 |
| G4C U44A | 0.373 |
| G4C U44C | 0.47 |
| G4A G5U | 0.0889 |
| G4A C45G | 0.691 |
| G4A C29A | 0.226 |
| G5A G11A | 0.785 |
| G4U G41U | 0.251 |
| G4U G41A | 0.265 |
| G4A U69C | 1.04 |

| Variant | self-cleavage |
| --- | --- |
| G4U U21G | 0.054 |
| G5A A13G | 0.88 |
| G5A A13U | 0.642 |
| G5C C12U | 0.256 |
| G5C C12G | 0.141 |
| G5C G11A | 0.164 |
| G5C G11C | 0.147 |
| G4U U43C | 0.462 |
| G5C C66A | 0.202 |
| G5C C66G | 0.186 |
| G4U C66G | 0.431 |
| G4A C6U | 0.426 |
| G4A C6G | 0.07 |
| G5A C22A | 0.134 |
| G5A G65U | 0.513 |
| G4A A16C | 0.0992 |
| G5A C39U | 0.653 |
| G4U U67G | 0.921 |
| G4A C39G | 0.717 |
| G4A U49A | 0.852 |
| G5A C63G | 0.448 |
| G3U U55G | 0.0975 |
| G3U U55A | 0.0915 |
| G4A A40U | 0.48 |

| Variant | self-cleavage |
| --- | --- |
| G4A A40G | 0.773 |
| G5C G28A | 0.134 |
| G4C G48A | 0.731 |
| G5A C34U | 0.599 |
| G5A C34A | 0.203 |
| G5C U26C | 0.109 |
| G5C A40U | 0.134 |
| G4A G58C | 0.701 |
| G4C G30C | 0.0792 |
| G5C G31A | 0.2 |
| G5C G31C | 0.0712 |
| G5A U55G | 0.433 |
| G5A G30C | 0.156 |
| G5A G30A | 0.156 |
| G3U U49G | 0.0811 |
| G4U A16G | 0.444 |
| G4U A16C | 0.0815 |
| G5C U49A | 0.287 |
| G5C G25A | 0.0822 |
| G5C | 0.24 |
| G5A | 0.933 |
| G4U C24U | 0.193 |
| G4U A42C | 0.179 |
| G4C A60G | 0.235 |

| Variant | self-cleavage |
| --- | --- |
| G4C A60C | 0.188 |
| G4A G48U | 0.919 |
| G4A G48C | 0.802 |
| G4U G58U | 0.798 |
| G5A U46G | 0.925 |
| G5A U46A | 0.907 |
| G4U U49A | 0.821 |
| G4U U49C | 0.758 |
| G5C G58C | 0.293 |
| G5C G58A | 0.198 |
| G5A U62G | 0.447 |
| G5A U62A | 0.492 |
| G5C A60U | 0.164 |
| G5C A60C | 0.171 |
| G5C A60G | 0.215 |
| G4C C35U | 0.0739 |
| G5A A15G | 0.846 |
| G4A U55A | 0.636 |
| G4A U55C | 0.351 |
| G4U C29G | 0.1 |
| G4U C29U | 0.192 |
| G4A U20C | 0.128 |
| G4A U53G | 0.517 |
